The text below walks through data of US20230357838.

Data set [1] has as its system T1, AvDa02 (Actinomyces viscosus).
T1 sequence: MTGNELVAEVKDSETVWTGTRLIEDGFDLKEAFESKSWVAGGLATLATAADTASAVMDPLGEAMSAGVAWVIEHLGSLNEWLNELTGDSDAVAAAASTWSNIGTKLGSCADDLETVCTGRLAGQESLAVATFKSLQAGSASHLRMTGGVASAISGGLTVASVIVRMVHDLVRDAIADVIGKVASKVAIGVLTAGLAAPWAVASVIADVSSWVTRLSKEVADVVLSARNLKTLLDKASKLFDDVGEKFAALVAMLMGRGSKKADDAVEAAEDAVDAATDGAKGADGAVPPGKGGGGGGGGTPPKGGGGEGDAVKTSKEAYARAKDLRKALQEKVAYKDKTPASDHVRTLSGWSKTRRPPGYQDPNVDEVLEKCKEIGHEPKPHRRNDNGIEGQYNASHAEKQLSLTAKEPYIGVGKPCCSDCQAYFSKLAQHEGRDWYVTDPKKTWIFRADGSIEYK

The test system of data set [2] is T2, BcDa02 (Burkholderia cepacia).
T2 sequence: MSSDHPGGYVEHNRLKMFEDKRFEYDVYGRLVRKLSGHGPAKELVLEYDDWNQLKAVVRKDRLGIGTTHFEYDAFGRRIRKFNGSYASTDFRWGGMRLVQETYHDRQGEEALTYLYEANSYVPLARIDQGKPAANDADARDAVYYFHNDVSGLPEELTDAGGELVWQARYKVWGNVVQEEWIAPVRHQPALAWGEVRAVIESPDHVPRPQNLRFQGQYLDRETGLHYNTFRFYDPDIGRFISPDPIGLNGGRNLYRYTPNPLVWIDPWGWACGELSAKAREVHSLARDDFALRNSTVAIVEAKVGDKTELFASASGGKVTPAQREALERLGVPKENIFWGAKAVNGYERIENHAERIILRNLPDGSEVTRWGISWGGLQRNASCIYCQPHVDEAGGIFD

In data set [3] the test system is T3, CsDa01 (Chitinophaga silvisoli).
T3 sequence: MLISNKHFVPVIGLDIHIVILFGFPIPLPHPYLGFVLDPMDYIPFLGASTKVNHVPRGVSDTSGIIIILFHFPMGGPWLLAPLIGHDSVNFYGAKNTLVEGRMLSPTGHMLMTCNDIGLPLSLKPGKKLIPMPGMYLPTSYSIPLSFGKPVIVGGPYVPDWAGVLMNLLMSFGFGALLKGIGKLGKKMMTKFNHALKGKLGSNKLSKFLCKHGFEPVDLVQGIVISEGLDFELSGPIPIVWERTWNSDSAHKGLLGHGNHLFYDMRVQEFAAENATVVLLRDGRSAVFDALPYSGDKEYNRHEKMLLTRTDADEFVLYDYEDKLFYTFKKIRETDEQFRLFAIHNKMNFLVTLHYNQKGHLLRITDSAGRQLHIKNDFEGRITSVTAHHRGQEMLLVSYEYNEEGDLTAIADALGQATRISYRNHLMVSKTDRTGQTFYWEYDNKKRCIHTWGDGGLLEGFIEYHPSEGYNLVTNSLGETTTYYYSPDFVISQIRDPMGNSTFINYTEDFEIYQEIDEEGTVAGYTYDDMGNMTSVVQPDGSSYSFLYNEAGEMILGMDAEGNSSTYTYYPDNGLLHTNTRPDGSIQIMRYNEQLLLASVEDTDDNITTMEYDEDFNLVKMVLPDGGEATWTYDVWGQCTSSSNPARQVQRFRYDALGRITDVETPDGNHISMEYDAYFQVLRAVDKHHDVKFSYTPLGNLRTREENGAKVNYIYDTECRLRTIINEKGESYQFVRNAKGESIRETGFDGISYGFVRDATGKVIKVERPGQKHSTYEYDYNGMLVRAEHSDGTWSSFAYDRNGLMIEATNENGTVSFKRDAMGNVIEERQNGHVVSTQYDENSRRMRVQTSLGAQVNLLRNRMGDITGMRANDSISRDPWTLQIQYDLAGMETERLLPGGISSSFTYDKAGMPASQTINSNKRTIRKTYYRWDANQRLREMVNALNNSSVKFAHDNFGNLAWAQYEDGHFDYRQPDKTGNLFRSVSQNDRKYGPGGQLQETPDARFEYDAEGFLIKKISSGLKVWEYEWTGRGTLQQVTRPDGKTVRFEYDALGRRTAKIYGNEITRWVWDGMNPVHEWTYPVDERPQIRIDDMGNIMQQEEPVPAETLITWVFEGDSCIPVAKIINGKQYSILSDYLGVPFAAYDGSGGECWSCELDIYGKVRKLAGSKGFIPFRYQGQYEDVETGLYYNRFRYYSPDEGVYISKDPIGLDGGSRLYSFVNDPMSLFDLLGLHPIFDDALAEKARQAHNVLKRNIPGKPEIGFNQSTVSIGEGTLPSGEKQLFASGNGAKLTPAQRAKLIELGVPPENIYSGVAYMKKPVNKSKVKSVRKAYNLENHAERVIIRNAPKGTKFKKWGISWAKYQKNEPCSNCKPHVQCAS

For the next data set, the system named is T4, LbsDa01 (Simiaoa sunii).
T4 sequence: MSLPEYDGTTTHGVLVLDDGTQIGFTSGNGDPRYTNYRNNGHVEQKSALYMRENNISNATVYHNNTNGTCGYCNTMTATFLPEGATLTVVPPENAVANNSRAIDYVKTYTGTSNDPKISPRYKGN

The next data set deals with T5, MGYPDa26 (unidentified).
T5 sequence: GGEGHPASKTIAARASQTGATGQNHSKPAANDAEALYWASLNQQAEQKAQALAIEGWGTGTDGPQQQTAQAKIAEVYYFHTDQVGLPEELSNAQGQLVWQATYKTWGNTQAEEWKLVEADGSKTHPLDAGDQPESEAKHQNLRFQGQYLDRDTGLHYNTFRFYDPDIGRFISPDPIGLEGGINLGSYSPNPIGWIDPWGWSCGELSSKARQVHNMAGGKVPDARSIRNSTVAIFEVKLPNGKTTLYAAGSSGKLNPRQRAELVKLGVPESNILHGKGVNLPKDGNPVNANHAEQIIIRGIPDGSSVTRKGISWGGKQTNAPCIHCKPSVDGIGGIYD

Data set [4] concerns NsDa01 (Neisseria subflava). To be noted: 5mC 0.059, 5hmC 0.017.
A further data set relates to T6, chimera_10.
T6 sequence: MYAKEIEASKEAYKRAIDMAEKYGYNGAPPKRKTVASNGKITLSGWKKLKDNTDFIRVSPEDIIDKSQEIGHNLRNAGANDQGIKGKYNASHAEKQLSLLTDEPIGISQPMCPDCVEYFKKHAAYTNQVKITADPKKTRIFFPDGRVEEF

Data set [5] deals with T7, d38_MGYPDa829 (unidentified).
T7 sequence: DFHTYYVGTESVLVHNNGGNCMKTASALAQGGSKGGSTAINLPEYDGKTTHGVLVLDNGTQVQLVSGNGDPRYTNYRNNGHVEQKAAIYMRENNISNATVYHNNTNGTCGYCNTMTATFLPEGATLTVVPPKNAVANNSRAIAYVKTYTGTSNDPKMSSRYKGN

For the substance “unmodified dsDNA (E. coli C2566 genomic)”, the activity (fraction deaminated) was determined as 0.998 in data set [1]; 0.772 in data set [2]; 0.913 in [3]; 0.889 in the data set with LbsDa01 (Simiaoa sunii); 0.748 in the data set with MGYPDa01 (unidentified); 0.929 in the data set on MGYPDa26 (unidentified). Moreover, the activity (fraction deaminated) in data set [4] was 0.597; in the data set on chimera_10, 0.95; in [5], 0.993.
